These results are taken from patent publication US20110256153A1 (IMMUNOGEN, published 2011).

One test has as its target T1, macaque CD37 (macaque, UniProt P11049 1-277 (human entry)).
T1 construct: Expressed on 300-19 cells transfected with pSRa-CD37mac (300-19/CD37mac cells); also called macaca CD37; macaque derived CD37 antigen
T1 chain: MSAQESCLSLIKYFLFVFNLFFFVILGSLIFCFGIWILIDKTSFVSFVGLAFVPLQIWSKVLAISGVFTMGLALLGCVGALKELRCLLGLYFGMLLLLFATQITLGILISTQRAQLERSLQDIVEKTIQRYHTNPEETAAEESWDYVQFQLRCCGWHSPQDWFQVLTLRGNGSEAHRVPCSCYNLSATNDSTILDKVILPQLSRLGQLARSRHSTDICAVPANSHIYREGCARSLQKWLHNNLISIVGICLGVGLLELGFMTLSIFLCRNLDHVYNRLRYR
Briefly: flow cytometry, 300-19/CD37mac cells. A digest of the protocol:
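300-19 cells transfected with macaque CD37, alongside non-transfected 300-19 cells (1×10⁵ per sample), incubated 3 h with purified antibodies in RPMI-1640 with 2% normal goat serum. Bound antibody detected with FITC-conjugated anti-mouse or anti-human secondary for 1 h. Cells fixed in 1% formaldehyde before flow cytometry.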

The next test has as its target T2, hCD37-M3 (human/murine chimera, UniProt P11049 1-281).
T2 construct: stably expressed on 300-19 cells; also called hCD37-M3 variant
T2 chain: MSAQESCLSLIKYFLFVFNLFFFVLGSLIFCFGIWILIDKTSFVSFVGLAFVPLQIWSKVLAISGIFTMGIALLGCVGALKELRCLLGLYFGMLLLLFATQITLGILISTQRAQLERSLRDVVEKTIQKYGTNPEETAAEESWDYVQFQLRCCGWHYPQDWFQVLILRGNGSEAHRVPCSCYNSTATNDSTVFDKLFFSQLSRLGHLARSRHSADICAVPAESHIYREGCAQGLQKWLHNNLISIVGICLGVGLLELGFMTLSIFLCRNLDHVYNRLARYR
The test can be described thus: flow cytometry, 300-19 cells expressing hCD37-M3, 1.5 µg/mL antibody. The procedure:
Binding specificity was tested by flow cytometry using purified antibodies. […] All murine antibodies were incubated for 3 h with either CD37-expressing 300-19 cells or the non-transfected 300-19 cells (1×10⁵ cells per sample) in 100 μL FACS buffer (RPMI-1640 medium supplemented with 2% normal goat serum). Then, the cells were pelleted, washed, and incubated for 1 h with 100 μL of FITC-conjugated goat anti-mouse IgG-antibody (Jackson Laboratory, 6 μg/mL in FACS buffer). The cells were pelleted again, washed with FACS buffer and resuspended in 200 μL of PBS containing 1% formaldehyde. Samples were acquired using a FACSCalibur flow cytometer with the HTS multiwell sampler or a FACS array flow cytometer and analyzed using CellQuest Pro (all from BD Biosciences, San Diego, US).
Binding of various CD37 antibodies to cells expressing human CD37 wildtype and variants was analyzed by flow cytometry using 1.5 μg/mL of each antibody. The isolated antibodies of this invention were compared to commercially available CD37 antibody WR17, as well as the TRU-016 SMIP. […] Likewise, all antibodies tested bound the hCD37-M3 variant (FIG. 18B). In contrast, the isolated antibodies of this invention bound the hCD37-M1 variant, while TRU-016 and WR17 were unable to bind hCD37-M1 variant (FIG. 19A). The CD37-50 and CD37-51 antibodies and TRU-016 were also able to bind the hCD37-M45 variant. […] In contrast, the CD37-3, CD37-12, CD37-38, CD37-56 and CD37-57 antibodies require at least one of the AA residues in the hCD37-M45 variant that were changed to the corresponding murine AA residues for binding to the CD37 antigen.

The target in the next test is T3, human CD37 (human, UniProt P11049 1-278).
T3 construct: Tetraspanin antigen; Expressed on 300-19 cells transfected with pSRa-CD37 (entire CDS) or endogenous on WSU-DLCL-2, BJAB and Ramos lymphoma cells; also called CD37 antigen; human CD37 wildtype
T3 sequence: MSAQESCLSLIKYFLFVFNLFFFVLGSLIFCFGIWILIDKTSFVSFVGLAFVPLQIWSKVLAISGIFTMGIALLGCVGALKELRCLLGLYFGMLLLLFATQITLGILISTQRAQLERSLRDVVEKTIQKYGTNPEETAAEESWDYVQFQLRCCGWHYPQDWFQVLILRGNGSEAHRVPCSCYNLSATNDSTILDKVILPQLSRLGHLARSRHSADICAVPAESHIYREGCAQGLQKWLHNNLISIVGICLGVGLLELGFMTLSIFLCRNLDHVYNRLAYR
Briefly: flow cytometry titration on BJAB cells; apparent Kd. The procedure, abridged: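 BJAB cells were incubated 3 h with titrated antibody in RPMI-1640 containing 2% goat serum, then 1 h with FITC anti-mouse or anti-human IgG, fixed in 1% formaldehyde and read by flow cytometry. Apparent Kd was derived by non-linear regression of the dose-response curves.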
For orientation: In flow cytometry, cells or beads pass a laser one at a time.

B1: muCD37-3 (antibody, mouse IgG2a, kappa)
heavy: QVQVKESGPGLVAPSQSLSITCTVSGFSLTTSGVSWVRQPPGKGLEWLGVIWGDGSTNYHSALKSRLSIKKDHSKSQVFLKLNSLQTDDTATYYCAKGGYSLAHWGQGTLVTVSAAKTTAPSVYPLAPVCGDTTGSSVTLGCLVKGYFPEPVTLTWNSGSLSSGVHTFPAVLQSDLYTLSSSVTVTSSTWPSQSITCNVAHPASSTKVDKKIEPRGPTIKPCPPCKCPAPNLLGGPSVFIFPPKIKDVLMISLSPIVTCVVVDVSEDDPDVQISWFVNNVEVHTAQTQTHREDYNSTLRVVSALPIQHQDWMSGKEFKCKVNNKDLPAPIERTISKPKGSVRAPQVYVLPPPEEEMTKKQVTLTCMVTDFMPEDIYVEWTNNGKTELNYKNTEPVLDSDGSYFMYSKLRVEKKNWVERNSYSCSVVHEGLHNHHTTKSFSRTPGK
light: DIQMTQSPASLSVSVGETVTITCRASENIRSNLAWYQQKQGKSPQLLVNVATNLADGVPSRFSGSGSGTQYSLKINSLQSEDFGTYYCQHYWGTTWTFGGGTKLEIKRADAAPTVSIFPPSSEQLTSGGASVVCFLNNFYPKDINVKWKIDGSERQNGVLNSWTDQDSKDSTYSMSSTLTLTKDEYERHNSYTCEATHKTSTSPIVKSFNRNEC
notes: Murine hybridoma antibody; also called murine CD37-3 antibody; muCD37-3-PE
Turning to B1, the binding result with macaque CD37 is “no binding”; in the test with hCD37-M3, “binds”. For the same molecule, the Kd with human CD37 was found to be 200 pM.
